According to the nanobody polyreactivity screen of Harvey et al. (2022):

Assay: yeast display, Sf9 membrane polyspecificity reagent, FACS + sequencing; frameworks hold sequencing errors
How it was run: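 Sorting gates, low and high (top ~1%), were placed on anti-HA fluorescence to track expression and on streptavidin fluorescence to track reagent binding. A clone's polyreactivity label is taken from the gate it came out of. The reagent was 10% biotinylated, detergent-solubilized Sf9 membrane, applied for 1 hour at 4 °C to galactose-induced yeast display cells.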

Row | Sequence | polyreactivity (PSR sort gate)
1 | QVQLVESGGGLVQAGGSLRLSCAASGFIFYRYAIGWYRQEPGKERELVAAITRSGRSTYYADSVKGRFTISRDNAKNTVYLQMNSLKAEDTAVYYCAVFGSYWWRGLSEDYWGQGTQVTVSS | high polyreactivity
2 | QVQLVESGGGLVQAGGSLRLSCAASGFIFYRYAMGWYRQAPGKERELVAAISWSGGTTYYADSVKGRFTISRDNAKNTVYLQMNSLKPEDTAVYYCAARSVPSPERGFYYWGQGTQVTVSS | high polyreactivity
3 | QVQLVESGGGLVQAGGSLRLSCAASGFIFYRYAMGWYRQAPGKERELVAAISYSGGSTYYADSVKGRFTISRDNAKNTVYLQMISLKPEDTAVYYCAAGSKYRYDYWGQGTQVTVSS | high polyreactivity
4 | QVQLVESGGGLVQAGGSLRLSCAASGFIFYRYAMGWYRQAPGKERELVAAITGGGSTYYADSVKGRFTISRDNAKNTVYLQMNSLKPEDTAVYYCNAVTYGWTAYDKGKRYDYWGQGTQVTVSS | high polyreactivity
5 | QVQLVESGGGLVQAGGSLRLSCAASGFIFYRYAMGWYRQAPGKERELVAAITSDGSTYYADSVKGRFTISRDNAKNTVYLQMNSLKPEDTAVYYCNAERWGNSVGNYWGQGTQVTVSS | high polyreactivity
6 | QVQLVESGGGLVQAGGSLRLSCAASGFIFYRYARGWYRQAPGKERELVAVISRGGNTYYADSVKGRFTISRDNAKNTVYLQMNSLKPEDTAVYYCNKRLRDSYRLYYYWGQGTQVTVSS | high polyreactivity
7 | QVQLVESGGGLVQAGGSLRLSCAASGFIFYRYTLGWSRQAPGKERELVAAITSGGSTYYADSVKGRFTISRDNAKNTVYLQMNSLKPEDSAVYYCAAAYQRWFNRRDYWGQGTQVTVSS | high polyreactivity
8 | QVQLVESGGGLVQAGGSLRLSCAASGFIFYSNAMGWYRPAPGKERELVAAISWGGGRTYYADSVKGRFTISRDNAKNTVYLQMNSLKPEDTAVYYCAAAGYHSGKGGGYWGQGTQVTVSS | high polyreactivity
9 | QVQLVESGGGLVQAGGSLRLSCAASGFIFYSYAMGWSRQAPGKERELVAAISSTGTSTYYADSVKGRFTISRDNAKNTVYLQMNSLKPEDTAVYYCNAGYAFDPDETYDYWGQGTQVTVSS | low polyreactivity
10 | QVQLVESGGGLVQAGGSLRLSCAASGFIFYSYAMGWYRQAPGKEREFVAAISRAGSTNYADSVKGRFTISRDNAKNTVYLQMNSLIPEDTAVYYCNKGYHSWSRLSQFGWSYDYWGQGTQVTVSS | high polyreactivity
11 | QVQLVESGGGLVQAGGSLRLSCAASGFIFYSYAMGWYRQAPGKEREFVASICGGTGSTYYADSVKGRFTISRDNAKNTVYLQMNSLIPEDTAVYYCNARIVHSFRYDYWGQGTQVTVSS | low polyreactivity
12 | QVQLVESGGGLVQAGGSLRLSCAASGFIFYSYAMGWYRQAPGKERELVAAISGSGGSTYYADSVKGRFTISRDNAKNTVYLQMNSLKPEDTAVYYCAAALTFRMDYWGQGTQVTVSS | high polyreactivity
13 | QVQLVESGGGLVQAGGSLRLSCAASGFIFYSYAMGWYRQAPGKERELVAAISWSGGRTYYADSVKGRFTISRDNAKNTVYLQMNSLKPEDTAVYYCNADDYSFSFTVPYYIEYVYWGQGTQVTVSS | high polyreactivity
14 | QVQLVESGGGLVQAGGSLRLSCAASGFIFYSYDMGWYRQAPGKERELVAAIDSRGVNTYYADSVKGRFTISRDNAKNTVYLQMNILKPEDTAVYYCNVDAITWWDWEDFDYWGQGTQVTVSS | low polyreactivity
15 | QVQLVESGGGLVQAGGSLRLSCAASGFIFYTNAMGWYRQAPGKERELVAAISRGGTTYYADSVKGRFTISRDNAKNTVYLQMNSLKPEDTAVYYCAKAWPDHWYSRYDYWGQGTQVTVSS | low polyreactivity
16 | QVQLVESGGGLVQAGGSLRLSCAASGFIFYTYAMGWYRQAPGKERELVAAIRRGGSTYYADSVKGRFTISRDNAKNTVYLQMNSLKPEDTAVYYCNARIPYKAKTNHFGYWGQGTQVTVSS | high polyreactivity
17 | QVQLVESGGGLVQAGGSLRLSCAASGFIFYYNAMGWYRQAPGKERELVAAISTDGGSTYYADSVKGRFTISRDNAKNTVYLQMNSLKPEDTAVYYCAANRYKRYDYWGQGTQVTVSS | low polyreactivity
18 | QVQLVESGGGLVQAGGSLRLSCAASGFIFYYNTMGWYRQAPGKERELVASITWSGDTTYYADSVKGRFTISRDNAKNTVYLQMNSLKPEDTAVYYCAAVHYYPYRRYDYWGQGTQVTVSS | low polyreactivity
19 | QVQLVESGGGLVQAGGSLRLSCAASGFIFYYYAMGWYRQAPGKEREFVAGISRSGGSTYYADSVKGRFTISRDNAKNTVYLQMNSLKPEDTAVYYCGEFWTYWGYGQYDYWGQGTQVTVSS | low polyreactivity
20 | QVQLVESGGGLVQAGGSLRLSCAASGFIFYYYAMGWYRQAPGKERELVAAISSGGSTYYADSVKGRFTISRDNAKNTVYLQMNSLKPEDTAVYYCNARGFYRGYTYYYWGQGTQVTVSS | high polyreactivity
21 | QVQLVESGGGLVQAGGSLRLSCAASGFIFYYYAMGWYRQAPGKERELVAAISSRGGITYYADSVKGRFTISRDNAKNTVYLQMNSLKPEDTAVYYCAVDFRPGYDYWGQGTQVTVSS | low polyreactivity
22 | QVQLVESGGGLVQAGGSLRLSCAASGFIFYYYAMGWYRQAPGKERELVAAISSSGTSTYYADSVKGRFTISRDNAKYTVYLQMNSLKPEDTAVYYCAAYSSHREDYWGQGTQVTVSS | high polyreactivity

Row | Sequence | polyreactivity (PSR sort gate)
23 | QVQLVESGGGLVQAGGSLRLSCAASGFIFYYYAMGWYRQAPGKERELVATITSGGGTYYADSVKGRFTISRDNAKNTVYVQMISLKPEDTAVYYCAKRDLEQSAFLGYDYWGQGTQVTVSS | low polyreactivity
24 | QVQLVESGGGLVQAGGSLRLSCAASGFIFYYYAMGWYRQAPGKEREMFAAITQGGGSTYYADSVKGRFTISRDNAKNTVYFQMNSLKPEDTAVYYCAAVKRVYAHCRAFSSDFYYWGQGTQVNVSS | high polyreactivity
25 | QVQLVESGGGLVQAGGSLRLSCAASGFIFYYYTMGWYRQAPGKERELVAAISSGGSTYYADSVKGRFTISRDNAKNTVYLQMNSLKPEDTAVYYCNKRYPSPEYNYWGQGTQVTVSS | high polyreactivity
26 | QVQLVESGGGLVQAGGSLRLSCAASGFIFYYYTMGWYTQAPGKERELVAAISKSGGNTYYADSVKGRFTISRDNAKNTVYLQMNSLKPEVTAVYYCAASRYNTVTYYYSGQGTQVTVSS | high polyreactivity
27 | QVQLVESGGGLVQAGGSLRLSCAASGFIIEVNAMGWYRQAPGKERELVARIDWSGGSTYYADSVKGRFTISRDNAKNTVYLQMNSLKPEDTAVYYCNADWTYADPNEYGYWGQGTQVTVSS | low polyreactivity
28 | QVQLVESGGGLVQAGGSLRLSCAASGFIIGGNPMGWYRQAPGKVRELVAAITGGGSTYYADSVKGRFTISRENAKNTVYLQMNSLKPEDTAVYYCNAGRVLRLAYNYWGQGTQVTVSS | low polyreactivity
29 | QVQLVESGGGLVQAGGSLRLSCAASGFIIGSYTMGWYRQAHGKERELVASITKRGGSTYYADSVKGRFTISRDNAKNTVYLQMNSLKPEDTSVYYCAATYWFSHRSRYDYWGQGTQVTVSS | high polyreactivity
30 | QVQLVESGGGLVQAGGSLRLSCAASGFIIKFCAMGLYRQAPGKERELVATITFSSGTTYYADSVKGRFTISRDNAKYTVYLQMNSLKPEDTAVYYCAASTLPAWPYDGPAGPRYDYWGQGTQVTVSS | low polyreactivity
31 | QVQLVESGGGLVQAGGSLRLSCAASGFIIPGYAMGWYRQAPGKERELVAAISRSGTSTYYADSVKGRFTISRDNAKNTVYLQMNSLKPEDTAVYYCAAKPASLSVRGYDYWGQGTQVTVSS | high polyreactivity
32 | QVQLVESGGGLVQAGGSLRLSCAASGFIIQGNAMGWYRQAPGKERELVAAISSSVSTYYADSVKGRFTISRDNAKNTVYLQMNSLKPEDTAVYYCNAGFPLSLWLGDYWGQGTQVTVSS | low polyreactivity
33 | QVQLVESGGGLVQAGGSLRLSCAASGFIISDYAMGWYRQAPGKERELVAVITWRSGSTYYADSVKGRFTISRDNAKNTVYFQMHSLKPVDTAVYYCAARYYRNYSQGRRLGYNYWGQGTQVTVSS | high polyreactivity
34 | QVQLVESGGGLVQAGGSLRLSCAASGFIISNNAMGWYRQAPGKERELVAVINGGGSTYYADSVKGRFTISRDTAKNTVYLQMNSLKPEDTAVYYCNADRFADYDYWGQGTQVTVSS | low polyreactivity
35 | QVQLVESGGGLVQAGGSLRLSCAASGFIITGNPMGWYRQAPGKERELVAAITSGGNTYYADSVKGRFTISRDNANNTVYLQMNSLKPEDTAVYYCAKYVPHWRILMEYWGQGTQVTVSS | low polyreactivity
36 | QVQLVESGGGLVQAGGSLRLSCAASGFIIVNNAMGWYRQAPGKERELVATISRGGSTNYADSVKGRFTISRDNAKNTVYLQMNSLKPEDTAVYYCNARRSVKVYGVDYWGQGTQVTVSS | high polyreactivity
37 | QVQLVESGGGLVQAGGSLRLSCAASGFIIVYYAMGWYRQAPGKERELVAAITSSGGSTYYADSVKGRFTISRDNAKNTVYLQMNSLKPEDTAVYYCNRVWYATDFVNTMGYWGQGTQGTVSS | low polyreactivity
38 | QVQLVESGGGLVQAGGSLRLSCAASGFIIYFYAMGWYRQAPGKERELVAAINYPGDSTYYADSVKGRFTISRDNAKNTVYLQMNSLKPEDTAVYYCNKVLYNKWPYVTLSAFPTVGYWGQGTQVTVSS | high polyreactivity
39 | QVQLVESGGGLVQAGGSLRLSCAASGFILDTYAMGWYRQAPGKERELVAAISASGSSTYYADSVKGRFTISRDNAKNTVYLQMNSLKPEDTAVYYCAAKDTGYGYGFPRLDYWGQGTQVTVSS | low polyreactivity
40 | QVQLVESGGGLVQAGGSLRLSCAASGFILDYNAMGWYRQAPGKERELVATITGRGDRTYYADSVKGRVTISRDNAKNTVYLQMNSLKPEDTAGYYCAAGFDGSRHPGFDSWGQGTQVTVSS | low polyreactivity
41 | QVQLVESGGGLVQAGGSLRLSCAASGFILDYYAMGWYRQAPGKERELVAANSYSGGSTYYADSVKGRFTISRDNAKNTVYLQMTSLKAEDTGVYYGNAGVLVLLYAYLPSELEYWGQGTQVTVSS | low polyreactivity
42 | QVQLVESGGGLVQAGGSLRLSCAASGFILEPNAMGWYRQAPGKERELVATISFSGGGTYYADSVKGRFTISRDNAKNNVYLQMNSLKPEDTAVYYCAAQGRDSDYVDFDYWGQGTQVTVSS | high polyreactivity
43 | QVQLVESGGGLVQAGGSLRLSCAASGFILGTYAMGWYRQAPGKERELVAAISRSGGSTYYADSVKGRFTISRDNAKNSVYLQMNSLKPEDTAVYYCNTVRVHGFPIDRIYDYWGQGTQVTVSS | high polyreactivity
